Experimental data published in article PMC8385639, “Fluorescence Correlation Spectroscopy Reveals Survival Motor Neuron Oligomerization but No Active Transport in Motor Axons of a Zebrafish Model for Spinal Muscular Atrophy” (Frontiers in Cell and Developmental Biology, 2021).

B1: His6-MBP-zfSMNwt (natural protein, zebrafish, UniProt Q9W6S8 1-281, looked up)
chain: MANGAEDVVFCRGTGQSDDSDIWDDTALIKAYDKAVASFKNALKGEDGATPQENDNPGKKRKNNKKNKSRKRCNAAPDKEWQVGDSCYAFWSEDGNLYTATITSVDQEKGTCVVFYTDYGNEEEQNLSDLLTEPPDMDEDALKTANVKETESSTEESDRSFTPQKSGHAKHKSKSNFPMGPPSWFPSFPPGPPPPPPHFKKMDGRRGEGPGPSFPGWPPMIPLGPPMIPPPPPMSPDFGEDDEALGSMLISWYMSGYHTGYYMGLRQGRKEAAASKKSHRK
notes: Survival motor neuron protein (Smn), zebrafish, wild type; The order of the tags is read from the printed name only; also called zebrafish Smn; zebrafish-Smn only control; source: E. coli BL21(DE3), purified (NiNTA); not shown: His6, N-terminal, kept; MBP, N-terminal, kept
B2: GST-hSMN (252-284) (domain or fragment, human, UniProt Q16637 252-284, looked up)
chain: DSLDDADALGSMLISWYMSGYHTGYYMGFRQNQ
notes: The N-terminal place of GST is read from the printed name only; also called human SMN; human-SMN only control; source: E. coli BL21(DE3), purified (NiNTA); not shown: GST, N-terminal, kept

Columns and labels:
[1] = target: the molecule itself; test: SEC; Superdex 200 Increase 10/300 GL; purified fusion proteins run alone and as a mixture; fractions analysed by SDS-PAGE with Coomassie staining
His6-MBP-zfSMNwt = target: B1; test: as above; settings: both partners purified

Binder	binding result [1]	binding result (His6-MBP-zfSMNwt)
B1	binds	–
B2	binds	binds
